The values below are quoted from earlier work in article PMC4624693.

In one data set the target is Nterm1 (UniProt position 977, HHLDRNSYPGC). Put plainly: NMR. The following applies: free, folded protein.
In a further data set the target is Asp46 (UniProt position 1022, RCQTRDLRWWE). The experiment in a line: NMR. Particulars: free, folded protein.
A further data set addresses Cterm53 (UniProt position 1029, RWWELRHAGYG). Put plainly: NMR. Particulars: free, folded protein.
The next data set concerns the target Asp27 (UniProt position 1003, HIESLDSYTCN). The experiment in a line: NMR. Particulars: free, folded protein.
The next data set addresses Glu51 (UniProt position 1027, DLRWWELRHAG). Put plainly: NMR. Particulars: free, folded protein.
The next data set deals with His22 (UniProt position 998, GGVCMHIESLD). Put plainly: NMR. The following applies: free, folded protein.
The next data set deals with Asp11 (UniProt position 987, CPSSYDGYCLN). The experiment in a line: NMR. The following applies: free, folded protein.
The next data set deals with Glu24 (UniProt position 1000, VCMHIESLDSY). Put plainly: NMR. Particulars: free, folded protein.
For the next data set, the target named is Asp40 (UniProt position 1016, IGYSGDRCQTR). Put plainly: NMR. The following applies: free, folded protein.
For the next data set, the target named is Lys66 (UniProt position 148, FTKKMKENAKK).
For the next data set, the target named is Asp. The following applies: free peptide.

The pKa is the negative logarithm of the acid dissociation constant. As to “Epidermal growth factor (mouse EGF) (Mus musculus)”, the pKa in the data set with Nterm1 is on record as 7.7±0.1; in the data set with Asp46, 3.8±0.1; with Cterm53, 3.5±0.1; with Asp27, 4.0±0.1; with Glu51, approximately 4; in the data set with His22 it was 6.8±0.1. In addition, the figures for the pKa with Asp11, with Glu24 and in the data set with Asp40 were 3.9±0.05, 4.1±0.1 and 3.6±0.1, respectively.

In the case of “Staphylococcal nuclease Delta+PHS/V66K (Staphylococcus aureus; V66K; Delta+PHS background (substitutions not listed in the article))”, the pKa in the data set with Lys66 was 5.6.

B1: Heptapeptide derived from turkey ovomucoid third domain (OMTKY3) (Meleagris gallopavo (parent protein; synthetic peptide)) (peptide)
chain: SDNKTYG
For B1, the pKa with Asp is on record as 3.6.
